Blank lines part the entries; values can stand above or below the binder they belong to.
Tests used:
[1] = target: T1, human TL1A (human, UniProt O95150 72-251, limits assumed); experiment: ELISA titration on plate-coated human TL1A, unpurified culture supernatant
T1 construct: also called tumor necrosis factor-like cytokine 1A; TNFSF15
T1 sequence (looked up): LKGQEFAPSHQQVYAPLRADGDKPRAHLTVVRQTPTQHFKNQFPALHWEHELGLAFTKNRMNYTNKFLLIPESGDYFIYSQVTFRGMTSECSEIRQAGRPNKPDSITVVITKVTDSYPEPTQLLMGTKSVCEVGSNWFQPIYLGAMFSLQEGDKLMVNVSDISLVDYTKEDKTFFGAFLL

[2] = target: T2, human TL1A (Fitzgerald #30R-AT070) (human, UniProt O95150 72-251, limits assumed); experiment: ELISA titration, coated human TL1A, culture supernatant
T2 construct: Coated on the ELISA plate at 1 ug/mL; also called TNFSF15
T2 sequence (looked up): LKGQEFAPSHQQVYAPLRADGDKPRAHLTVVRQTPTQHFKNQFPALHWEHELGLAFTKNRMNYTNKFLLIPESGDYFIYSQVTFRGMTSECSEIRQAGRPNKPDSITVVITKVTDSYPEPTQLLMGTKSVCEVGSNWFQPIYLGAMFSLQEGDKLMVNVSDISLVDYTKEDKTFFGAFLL

B1: A221 (antibody, IgG1, V domains shown)
VH: QVQLVQSGAEVKKPGASVKVSCKASGFDIQDTYMHWVKQRPGQGLEWMGRIDPASGHTKYDPKFQVRATITRDTSTSTAYLELSSLRSEDTAVYYCARSGGLPDVWGQGTTVTVSS
VL: EIVLTQSPGTLSLSPGERATLSCRASSSVSYMYWYQQKPGQAPRPLIYATSNLASGIPDRFSGSGSGTDFTLTISRLEPEDFAVYYCQQWEGNPRTFGGGTKLEIK
Kd [1]: 0.051 nM

B7: A41 (antibody, human IgG1, V domains shown)
VH: QVQLVQSGAEVKKPGASVKVSCKASGFDIQDTYMHWVKQRPGQGLEWIGRIDPASGHTKYDPKFQVRVTITTDTSTSTAYLELSSLRSEDTAVYYCARSGGLPDVWGQGTTVTVSS
VL: EIVLTQSPGTLSASPGERATMSCRASSSVSYMYWYQQKPGQAPRPWIYATSNLASGVPDRFSGSGSGTDYTLTISRVEPEDFAVYYCQQWSGNPRTFGGGTKLEIK
notes: human IgG1/kappa (pFuse vectors), culture supernatant
Kd [2]: 0.016 nM

B8: A42 (antibody, human IgG1, V domains shown)
VH: QVQLVQSGAEVKKPGASVKVSCKASGFDIQDTYMHWVKQRPGQGLEWIGRIDPASGHTKYDPKFQVRATMTTDTSTSTAYLELSSLRSEDTAVYYCARSGGLPDVWGQGTTVTVSS
VL: EIVLTQSPGTLSASPGERATMSCRASSSVSYMYWYQQKPGQAPRPWIYATSNLASGVPDRFSGSGSGTDYTLTISRVEPEDFAVYYCQQWSGNPRTFGGGTKLEIK
notes: as for B7
Kd [2]: < 0.05 nM

B9: A43 (antibody, human IgG1, V domains shown)
VH: QVQLVQSGAEVKKPGASVKVSCKASGFDIQDTYMHWVKQRPGQGLEWIGRIDPASGHTKYDPKFQVRATITRDTSTSTAYLELSSLRSEDTAVYYCARSGGLPDVWGQGTTVTVSS
VL: EIVLTQSPGTLSASPGERATMSCRASSSVSYMYWYQQKPGQAPRPWIYATSNLASGVPDRFSGSGSGTDYTLTISRVEPEDFAVYYCQQWSGNPRTFGGGTKLEIK
notes: as for B7
Kd [2]: 0.051 nM

B10: A45 (antibody, human IgG1, V domains shown)
VH: QVQLVQSGAEVKKPGASVKVSCKASGFDIQDTYMHWVKQRPGQGLEWIGRIDPASGHTKYDPKFQVRVTITRDTSTSTAYLELSSLRSEDTAVYYCARSGGLPDVWGQGTTVTVSS
VL: EIVLTQSPGTLSASPGERATMSCRASSSVSYMYWYQQKPGQAPRPWIYATSNLASGVPDRFSGSGSGTDYTLTISRVEPEDFAVYYCQQWSGNPRTFGGGTKLEIK
notes: as for B7
Kd [2]: 0.085 nM

B11: A46 (antibody, human IgG1, V domains shown)
VH: QVQLVQSGAEVKKPGASVKVSCKASGFDIQDTYMHWVKQRPGQGLEWIGRIDPASGHTKYDPKFQVRATMTRDTSTSTAYLELSSLRSEDTAVYYCARSGGLPDVWGQGTTVTVSS
VL: EIVLTQSPGTLSASPGERATMSCRASSSVSYMYWYQQKPGQAPRPWIYATSNLASGVPDRFSGSGSGTDYTLTISRVEPEDFAVYYCQQWSGNPRTFGGGTKLEIK
notes: as for B7
Kd [2]: 0.063 nM

B12: A47 (antibody, human IgG1, V domains shown)
VH: QVQLVQSGAEVKKPGASVKVSCKASGFDIQDTYMHWVKQRPGQGLEWIGRIDPASGHTKYDPKFQVRVTMTRDTSTSTAYLELSSLRSEDTAVYYCARSGGLPDVWGQGTTVTVSS
VL: EIVLTQSPGTLSASPGERATMSCRASSSVSYMYWYQQKPGQAPRPWIYATSNLASGVPDRFSGSGSGTDYTLTISRVEPEDFAVYYCQQWSGNPRTFGGGTKLEIK
notes: as for B7
Kd [2]: 0.082 nM

B13: A48 (antibody, human IgG1, V domains shown)
VH: QVQLVQSGAEVKKPGASVKVSCKASGFDIQDTYMHWVKQRPGQGLEWIGRIDPASGHTKYDPKFQVRATITTDTSTSTAYLELSSLRSEDTAVYYCARSGGLPDVWGQGTTVTVSS
VL: EIVLTQSPGTLSASPGERATLSCRASSSVSYMYWYQQKPGQAPRPWIYATSNLASGVPDRFSGSGSGTDYTLTISRVEPEDFAVYYCQQWSGNPRTFGGGTKLEIK
notes: as for B7
Kd [2]: 0.076 nM

B14: A49 (antibody, human IgG1, V domains shown)
VH: QVQLVQSGAEVKKPGASVKVSCKASGFDIQDTYMHWVKQRPGQGLEWIGRIDPASGHTKYDPKFQVRATITTDTSTSTAYLELSSLRSEDTAVYYCARSGGLPDVWGQGTTVTVSS
VL: EIVLTQSPGTLSASPGERATMSCRASSSVSYMYWYQQKPGQAPRLLIYATSNLASGVPDRFSGSGSGTDYTLTISRVEPEDFAVYYCQQWSGNPRTFGGGTKLEIK
notes: as for B7
Kd [2]: 0.092 nM

B15: A50 (antibody, human IgG1, V domains shown)
VH: QVQLVQSGAEVKKPGASVKVSCKASGFDIQDTYMHWVKQRPGQGLEWIGRIDPASGHTKYDPKFQVRATITTDTSTSTAYLELSSLRSEDTAVYYCARSGGLPDVWGQGTTVTVSS
VL: EIVLTQSPGTLSASPGERATMSCRASSSVSYMYWYQQKPGQAPRPWIYATSNLASGVPDRFSGSGSGTDFTLTISRVEPEDFAVYYCQQWSGNPRTFGGGTKLEIK
notes: as for B7
Kd [2]: 0.019 nM

B16: A51 (antibody, human IgG1, V domains shown)
VH: QVQLVQSGAEVKKPGASVKVSCKASGFDIQDTYMHWVKQRPGQGLEWIGRIDPASGHTKYDPKFQVRATITTDTSTSTAYLELSSLRSEDTAVYYCARSGGLPDVWGQGTTVTVSS
VL: EIVLTQSPGTLSASPGERATMSCRASSSVSYMYWYQQKPGQAPRPWIYATSNLASGVPDRFSGSGSGTDYTLTISRLEPEDFAVYYCQQWSGNPRTFGGGTKLEIK
notes: as for B7
Kd [2]: < 0.05 nM

The next lines start with the values.

Kd [1]: 0.094 nM
B2: A156 (antibody, IgG1, V domains shown)
VH: QVQLVQSGAEVKKPGASVKVSCKASGFDIQDTYMHWVRQAPGQGLEWMGRIEPASGHIKYDPKFQVRATMTRDTSTSTVYMELSSLRSEDTAVYYCARSGGLPDWWGQGTTVTVSS
VL: EIVLTQSPGTLSLSPGERATLSCRASSSVSYMYWYQQKPGQAPRPWIYATSNLASGIPDRFSGSGSGTDFTLTISRLEPEDFAVYYCQQWEGNPRTFGGGTKLEIK

Kd [1]: 0.069 nM
B3: A157 (antibody, IgG1, V domains shown)
VH: QVQLVQSGAEVKKPGASVKVSCKASGFDIQDTYMHWVKQRPGQGLEWMGRIDPASGHTKYDPKFQVRVTITRDTSTSTVYLELSSLRSEDTAVYYCARSGGLPDVWGQGTTVTVSS
VL: EIVLTQSPGTLSLSPGERATLSCRASSSVSYMYWYQQKPGQAPRLLIYATSNLASGIPDRFSGSGSGTDFTLTISRLEPEDFAVYYCQQWKGNPRTFGGGTKLEIK

Kd [1]: 0.066 nM
B4: A158 (antibody, IgG1, V domains shown)
VH: QVQLVQSGAEVKKPGASVKVSCKASGFDIQDTYMHWVKQRPGQGLEWMGRIDPASGHTKYDPKFQVRVTITRDTSTSTVYMELSSLRSEDTAVYYCARSGGLPDVWGQGTTVTVSS
VL: EIVLTQSPGTLSLSPGERATLSCRASSSVSYMYWYQQKPGQAPRLLIYATSNLASGIPDRFSGSGSGTDFTLTISRLEPEDFAVYYCQQWKGNPRTFGGGTKLEIK

Kd [1]: 0.069 nM
B5: A159 (antibody, IgG1, V domains shown)
VH: QVQLVQSGAEVKKPGASVKVSCKASGFDIQDTYMHWVKQRPGQGLEWMGRIDPASGHTKYDPKFQVRVTITRDTSTSTAYMELSSLRSEDTAVYYCARSGGLPDVWGQGTTVTVSS
VL: EIVLTQSPGTLSLSPGERATLSCRASSSVSYMYWYQQKPGQAPRLLIYATSNLASGIPDRFSGSGSGTDFTLTISRLEPEDFAVYYCQQWKGNPRTFGGGTKLEIK

Kd [1]: 0.094 nM
B6: A160 (antibody, IgG1, V domains shown)
VH: QVQLVQSGAEVKKPGASVKVSCKASGFDIQDTYMHWVKQRPGQGLEWMGRIDPASGHTKYDPKFQVRVTMTRDTSTSTAYLELSSLRSEDTAVYYCARSGGLPDVWGQGTTVTVSS
VL: EIVLTQSPGTLSLSPGERATLSCRASSSVSYMYWYQQKPGQAPRLLIYATSNLASGIPDRFSGSGSGTDFTLTISRLEPEDFAVYYCQQWKGNPRTFGGGTKLEIK

Kd [2]: 0.027 nM
B17: A52 (antibody, human IgG1, V domains shown)
VH: QVQLVQSGAEVKKPGASVKVSCKASGFDIQDTYMHWVKQRPGQGLEWIGRIDPASGHTKYDPKFQVRATITTDTSTSTAYLELSSLRSEDTAVYYCARSGGLPDVWGQGTTVTVSS
VL: EIVLTQSPGTLSASPGERATMSCRASSSVSYMYWYQQKPGQAPRPWIYATSNLASGVPDRFSGSGSGTDFTLTISRLEPEDFAVYYCQQWSGNPRTFGGGTKLEIK
notes: as for B7

Kd [2]: 0.126 nM
B18: A53 (antibody, human IgG1, V domains shown)
VH: QVQLVQSGAEVKKPGASVKVSCKASGFDIQDTYMHWVKQRPGQGLEWIGRIDPASGHTKYDPKFQVRVTMTTDTSTSTAYLELSSLRSEDTAVYYCARSGGLPDVWGQGTTVTVSS
VL: EIVLTQSPGTLSASPGERATMSCRASSSVSYMYWYQQKPGQAPRPWIYATSNLASGVPDRFSGSGSGTDYTLTISRVEPEDFAVYYCQQWSGNPRTFGGGTKLEIK
notes: as for B7

Kd [2]: 0.083 nM
B19: A54 (antibody, human IgG1, V domains shown)
VH: DVQLVQSGAEVKKPGASVKVSCKASGFDIQDTYMHWVKQRPGQGLEWIGRIDPASGHTKYDPKFQVRATITTDTSTSTAYLELSSLRSEDTAVYYCARSGGLPDVWGQGTTVTVSS
VL: EIVLTQSPGTLSASPGERATMSCRASSSVSYMYWYQQKPGQAPRPWIYATSNLASGVPDRFSGSGSGTDYTLTISRVEPEDFAVYYCQQWSGNPRTFGGGTKLEIK
notes: as for B7

Kd [2]: 0.091 nM
B20: A55 (antibody, human IgG1, V domains shown)
VH: EVQLVQSGAEVKKPGASVKVSCKASGFDIQDTYMHWVKQRPGQGLEWIGRIDPASGHTKYDPKFQVRATITTDTSTSTAYLELSSLRSEDTAVYYCARSGGLPDVWGQGTTVTVSS
VL: EIVLTQSPGTLSASPGERATMSCRASSSVSYMYWYQQKPGQAPRPWIYATSNLASGVPDRFSGSGSGTDYTLTISRVEPEDFAVYYCQQWSGNPRTFGGGTKLEIK
notes: as for B7

Kd [2]: 0.116 nM
B21: A56 (antibody, human IgG1, V domains shown)
VH: QVQLVQSGAEVKKPGASVKVSCKASGFDIQDTYMHWVKQRPGQGLEWIGRIDPASGHTKYDPKFQVRATITTDTSTSTAYLELSSLRSEDTAVYYCARSGGLPDVWGQGTTVTVSS
VL: EIVLTQSPGTLSASPGERATMSCRASSSVSYMYWYQQKPGQAPRPWIYATSNLASGIPDRFSGSGSGTDYTLTISRVEPEDFAVYYCQQWSGNPRTFGGGTKLEIK
notes: as for B7
